{"source": "the DeepSol protein solubility set", "data": [{"assay": "soluble on expression in E. coli; label from the status in PepcDB or PDB records", "values": [{"sequence": "MVSKAINSAMNQVDGIVVVGSPGRNLEIEDEKVTFIQSQISDVGKRYFIGLEKIDADYYFLLDYDDIFLSNKVNALKRVFENGKGGAAKESEYYNPSLNYISNVIRNRIDWHISEYSFDADFKKYLLKFVEKYSIPTHVSFDKILFAIMLNYGNMHVVNSKLTEIVSHGDSRMHAKRKRKFYSETYKVFEKFKSIPDLNQSCRQYVEYTYDLNRYLSEPTRENYEHLLASGKYPIPLYKRLYYKYYSIMKPE", "soluble on expression in E. coli": "not soluble"}, {"sequence": "MGSDKIHHHHHHMMDRAAIRQQARFELARRDFFYYCHLMASDFYKPSRRYLVELCNDLQGFLSDNEHNVLVINEPPRHGKSRTAGMFVQWLLGNDNDKKIMTGSYNETLSTVFSKNVRNAIQETKADEDVVVFNDIFPDTHIKYGDAAMNLWSLEGGYNNYLATSPTGTATGFGADIIIVDDLIKNAEEANNATVLEKHWEWFTNTMLSRLEEGGKIIIIMTRWHSQDLAGKALIELPKSDYKVKHISMKAYDEATDTMLCDEVLSKQAYLQKTKTMGADIASANYQQEPIDIKGRLYSGFKTYVDKPTFKRISAYTDTADTGKDYLASYIYGVTMDNEAYILDVVFTKEPMEVTEPLLAQKLAEWQVNTCDIESNNGGRGFARNVERLTQDSYQNRYTVFNWFHQSQNKQARILTNTTWAIEHIYFPENWRHRWSELYQNLMSYQREGKNAHDDAADALTGVVEAINDKIRTKAKVKRKSLYGL", "soluble on expression in E. coli": "not soluble"}, {"sequence": "MSLTPRVNSGGAVVADAYGRPLKDLRIAVTPECNLDCFFCHMEGATESGPMRPGSWSPVLSVEDYDIIGEAASRLGVDSFKLTGGEPLIRGDVDKIVAVLARYGEVSMTTNGILLPLKASSLKRAGLARVNVSLHSISEEVYEKITRRRAVKLALKGVEAALKAGLRVKVNMVLLRGLNEGEFWRLLRLAEDLGFDLQVIEVHPAGRGRKVLSSFRRPIDVVEERLSSMAVAVETGRLHNRRVYRLPSGVRVYLVDPVENPVFCMGCYRVRLTWDGRLLPCIYWKGPYPSVAEALKRGGSREEKVWRVMKILLEANALRRPTYLFRLHDGQEPQAPSTGRGLRLTLPGKAKAERLAYSTLKAPLIEG", "soluble on expression in E. coli": "not soluble"}, {"sequence": "MGSDKIHHHHHHMDTIAESIQKKAYELGYEKCGIIPINLIDEYADKFNERMEKIPKSKMFYKSQERLIKPKEIYPWAKSVVVLTSVYGKYKVPQELNGHIAKAYLFDTRVDKNTKEYQNNRALEEYMQELGLKVETNQKFGVVGMRWAALQAGVGIIRRNNFLYTESGSWVHLEAWVTDRKMELKETNNVKKCPKSCNRCIMSCPTKSLSEPYTMSPTECVSFLTTFGGRNLPEEPLRKKFGDCIYGCDICQDACPMNKGKWKDEEEFPGLAELAPSLTPENILNMDEDFYREKVQPKFFYLSPEDLWKWKIDALCYIGNNYSESYKPLLVNACNNANNKISEMANLICSELSLQ", "soluble on expression in E. coli": "not soluble"}, {"sequence": "MGSDKIHHHHHHAATVKLTIIKSDLDMKASGGTGTVEFAATGTVTATVNADWCQVIEVADHKVSISVDANTGYPGRSAQIVLTDGVSTQQATILQEGAIWKYNRDATYFTLTDAAEEVPVEMSSNLPIQVSIPADASQWLSYEMTSDGFKFIAKENLTGKIRSAIVKVTTGIREIEYALLQYDIDDLLGQWTGVVKVVATAFGINQVLSLEENTQIVKNPGGNGYIFQLPMTRLLGATIVLAVTYQDGALVITTPQQQNYALSDGQGGVMYGSIITKTDDGLYLQGKIILSPVLMNDGQVALAYITDAYMSMGLFKGRVPSTANYAGLSIDFPAILMQYAE", "soluble on expression in E. coli": "not soluble"}, {"sequence": "MKLSLRQLQIFCAVAQHGSTTSAAISVSLSQSATSAALNELESALDTRLFDRVGKRLVLNDNGHALLPQARRMLENAQQIEASFLPGHAGLKTRLRVGCSTTIGNYVLPLILGELRQSTPHLRVDVDMANSMAIARRVADFEIDMGLIEGPCHLPELSAEPWLIDELLIAAGQRHPLALKQQVTLDDLRTAEWLLREPGSGTREEVEQLLLRHLHDLAETRQIGSSEAIKHTLAQGIGISCLSRWVVRDLLASEVLVELPHALPALTRRFFLIRHRDKYISPGLERFWEKCSQFVSQE", "soluble on expression in E. coli": "not soluble"}, {"sequence": "MSLQFSVLASGSTGNAFYLETEDHAFLVDAGLSGKAMDGLMAQIGRKLDDVDGIFVTHEHSDHIKGLGVVARKYKLPIYANEKTWKAMENQIGKIDTDQKFVFPMETVKSFGGLDVESFGVSHDAAEPMFYVFHYSGRKLALMTDTGYVSDRMKGIIRSANVFVFESNHDVGMLQMGRYPWSIKRRILSDVGHVSNEDAALAMTDVIGDETSRIYLAHLSQDNNMKELARMSVQQTLASKGFVTGETFDLYDTDPKKATPLWLYNFSMLEHHHHHH", "soluble on expression in E. coli": "not soluble"}, {"sequence": "MEKVHYAAIDVGSNAVRLLIKCVNSEGMEEPLSKVLIMRVPIRLGEDSFTKGYIGEEKTDNMVRLMRAYYEMMQIYRVKDYRACATSAMRDASNAEAVIAQIREKTGIHIDIIDGDEEARLVSDNHIEQIISDGGNYIYLDVGGGSTELTIPAAEIFLEVADITGAKTIIAPIVGLADGIIEDLYIRHQSQPSLEHHHHHH", "soluble on expression in E. coli": "soluble"}, {"sequence": "MYADEVDKDRRTFKKNFSSARGSGIDGKWKRDMFQTANRSPKQNFTTKRRAQTNFVTKAGAAAAGLATRNISTASIRGRTAPAVVREIHTGPSTLIIKNLATTVTQEDLEELFEQYEPELVQLHYGPTGESNGCADLIVPHAQVAIIQKALEGVLLDGEPIEVLEANPPKQVSVFDRIKKVSRGNDFKAKNMRVVVKSKGGFQKRGARGDF", "soluble on expression in E. coli": "not soluble"}, {"sequence": "MGSSHHHHHHSSGENLYFQGHMSVSAFNRRWAAVILEALTRHGVRHICIAPGSRSTPLTLAAAENSAFIHHTHFDERGLGHLALGLAKVSKQPVAVIVTSGTAVANLYPALIEAGLTGEKLILLTADRPPELIDCGANQAIRQPGMFASHPTHSISLPRPTQDIPARWLVSTIDHALGTLHAGGVHINCPFAEPLYGEMDDTGLSWQQRLGDWWQDDKPWLREAPRLESEKQRDWFFWRQKRGVVVAGRMSAEEGKKVALWAQTLGWPLIGDVLSQTGQPLPCADLWLGNAKATSELQQAQIVVQLGSSLTGKRLLQWQASCEPEEYWIVDDIEGRLDPAHHRGRRLIANIADWLELHPAEKRQPWCVEIPRLAEQAMQAVIARRDAFGEAQLAHRICDYLPEQGQLFVGNSLVVRLIDALSQLPAGYPVYSNRGASGIDGLLSTAAGVQRASGKPTLAIVGDLSALYDLNALALLRQVSAPLVLIVVNNNGGQIFSLLPTPQSERERFYLMPQNVHFEHAAAMFELKYHRPQNWQELETAFADAWRTPTTTVIEMVVNDTDGAQTLQQLLAQVSHL", "soluble on expression in E. coli": "soluble"}, {"sequence": "MSLKKILILFFSIILSLGMVSCSSSGDYKNVSTSKIKKALKSSDLLIKESKIFDAKDFNYFNDVEEDIIQGFVINSSEKLSLEDIIVIKTDEVDKIYKTLENYKKDMIQAPFGEGHGEKINSEIANNTIIEKAGRYVYLISAENATQIENKILNIIKEGHHHHHH", "soluble on expression in E. coli": "soluble"}, {"sequence": "MSLKHLTEMVRQHKAGKTNGIYAVCSAHPLVLEAAIRYASANQTPLLIEATSNQVDQFGGYTGMTPADFRGFVCQLADSLNFPQDALILGGDHLGPNRWQNLPAAQAMANADDLIKSYVAAGFKKIHLDCSMSCQDDPIPLTDDIVAERAARLAKVAEETCLEHFGEADLEYVIGTEVPVPGGAHETLSELAVTTPDAARATLEAHRHAFEKQGLNAIWPRIIALVVQPGVEFDHTNVIDYQPAKASALSQMVENYETLIFEAHSTDYQTPQSLRQLVIDHFAILKVGPALTFALREALFSLAAIEEELVPAKACSGLRQVLEDVMLDRPEYWQSHYHGDGNARRLARGYSYSDRVRYYWPDSQIDDAFAHLVRNLADSPIPLPLISQYLPLQYVKVRSGELQPTPRELIINHIQDILAQYHTACEGQEGHHHHHH", "soluble on expression in E. coli": "soluble"}, {"sequence": "MGHHHHHHSHDFIPRGAFGKVYLAQDIKTKKRMACKLIPVDQFKPSDVEIQACFRHENIAELYGAVLWGETVHLFMEAGEGGSVLEKLESCGPMREFEIIWVTKHVLKGLDFLHSKKVIHH", "soluble on expression in E. coli": "not soluble"}, {"sequence": "MVESQFEQDSQISTDSPLVLVKAAEKTSAIQQLLDYISNYQMISSNSIPIKSMDKIMMLKLDDIILVDVNQTTLKIYTLTGVFTTTETLVHFANRLNKSNFIQISKHALINLDHLESLSDSFSGNMMAKLSSNIKSSVSRKYVKGLMTQLGI", "soluble on expression in E. coli": "not soluble"}, {"sequence": "ISVLDLTPVSTGQQPGEALRHTLELAEVADSYQYTRFWIAEHHNSGAFVSAATEILIALAAARTGRIRVGSGGVMLPNHSPLKVAENFMSLEALFPGRIDLGLGRAPGTDGRTALALRRSREALAADDFPTQIALLRAFAGETPWPAGSVFDGVLAEPRGVKLPPLWILGSSLYGAQLAGELGVGYAFAYHFSQEDPAVAVQTYHRHFRPGPLAEPYAILGVNALAAPTEDEARDLSLTSAALSLGILSGQRGVLRSPEEARQWLQEMDTDPAKLLKKARIGTPEQVWASLQELGESTGAQEMLVTTYAHDPLKRQQSYRLLAQ", "soluble on expression in E. coli": "not soluble"}, {"sequence": "MKRISYIEDFEQWESGFSFYNPVKVRFGEVDMFGHVNNVVAFTYFEEARIALFKELGFMQEWTHASSETMIVVADLQCNFIKQIYFDEQLKVYVKAGSVGNSSLDLHYMVKNAEGEICLVGRGMMVQASKKTGRGEPWPEEWKKKLLQ", "soluble on expression in E. coli": "soluble"}, {"sequence": "MGSDKIHHHHHHMPLTMNKDVFITCAVTGSGSTQDRSPHVPRSPKQIAESAIEAARAGAAIVHCHVRDPESGAPSRDLSYYREVTDRIREADIDVVLNLTAGMGGDITFGSTDAPFPVDEAGTDMVGAAERVAHIADCLPEICTLDCGTMNFAEADYVMTNTPGMLRAMGRMMTDLGVKPEIEAFDTGHLWFAKELVKEGVLDSPALVQLCMGVPWGAPDDLNTFMAMVNNVPDNWTFSAFALGRNEMAYVAASVLAGGNVRVGLEDNLWLEKGVLATNAQLVEQAVGIIEGMGARVIGPDMVRETLGLTKQAPA", "soluble on expression in E. coli": "not soluble"}, {"sequence": "MGSDKIHHHHHHMKHSRTAAAKRKTGVFARLADLYTRMEQEYSDKARAAGLTCAGCPDNCCTSYFQHHTHVEWLYLWRGMNRLPEARRAAYLARAKDVVEQSRDLLARGIRPRLMCPVNDDGLCGIYEHRLMICRMHGTRNVLALPDGGLRSFSGCFRFVECTAGQQAEAVPTVDRTPYYRELAALEMEHVGPRLKKLPRVDLTLAEMLFYGPPKL", "soluble on expression in E. coli": "not soluble"}, {"sequence": "MIGMDHLAIGTYEGFLIGYDIDTQPNDPKTTTGCTLRYAYAAHERSIRCIAGSFPILASASVDESIKVYQLDQLQELATLYDLQVPVNSVDIQLQGGLLSGGEDGKLVYYPYGGWSKPKYLKGHKGNVHSVALHPTGQICLSVARDKCLKLWKTNGDCVCSLELPDEAFIVKWTEDGQGWVIATQTSFSVHSLQTGLIQQWEYSTRLVCLCALTNDIFVVGGMDGHLRVGENKPIQVHKVDGGSLVKGIGVGRDGCIYSLSSKGVLEMVAPSRQLEIQNGVVKRYIE", "soluble on expression in E. coli": "not soluble"}, {"sequence": "MGSDKIHHHHHHMEKIKGKNTVNCEICLHNSKTRPMFKHEGKNICIECLNALKFPRNFEEMKNEVMDYLDELRIRNNKYNCILGFSGGKDSVVALYLLVKELRIRPLCVTVDNGYLAEEALTNCKNVAKYFGVDWLVINKDFTKFFKETISKGESPCRVCSDMNMHELWQFARQTNIDTIVTGHELPFGTTAIRGMKKGINMLRLLVAYKLTEEDRYNILKEIPWEKPDLGGYTTNCLVLAPALVEFKKKHGFSFEYDRVSAMIRYGLMTREEAEEALKCPEVSDEIYEELKKRGLDFKNLKE", "soluble on expression in E. coli": "not soluble"}, {"sequence": "MGSDKIHHHHHHKSTDYELKYSYAKKYFNAKQYSKSATLLDELVTIFKGTAYAEESLYLLAQSYYGQKDYQTASQYFETYYTTYPKGEFTELSRFYSGYGLYLDSPDPRLDQSQTYKAIEQLQLYLEYYPQSERAEEAQNIMFELQEKLAYKELMATRLYFNLGTYMGNNFQSCVITAQNALKNYPYSKYREEFMFLIIRAKYELALVSVEEKLQGRYRDVVDEYYNYMNEYPEGNYVKQVTKFYDYASKRITDAY", "soluble on expression in E. coli": "not soluble"}]}]}
